Measurements from article PMC12102759.

B1: MXI1 peptide 6-21 (Max-interacting protein 1), 16-mer library wild type / SIN3A PAH2 (SIN3A PAH domain, residues 295-383) (parent)
chain 1: MINVQRLLEAAEFLER
chain 2: SLQNNQPVEFNHAINYVNKIKNRFQGQPDIYKAFLEILHTYQKEQRNAKEAGGNYTPALTEQEVYAQVARLFKNQEDLLSEFGQFLPDA
B2: ATXN2 peptide 911-926 (Ataxin-2), 16-mer library wild type / PABPC1 PABC (PABPC1 PABC domain, residues 544-623) (parent)
chain 1: KSTLNPNAKEFNPRSF
chain 2: PLTASMLASAPPQEQKQMLGERLFPLIQAMHPTLAGKITGMLLEIDNSELLHMLESPESLRSKVDEAVAVLQAHQAKEAA
B3: PEX5 peptide 110-125 (Peroxisomal targeting signal 1 receptor), 16-mer library wild type / PEX14 Pex14 (PEX14 PEX14, residues 16-84) (parent)
chain 1: ADLALSENWAQEFLAA
chain 2: TPGSENVLPREPLIATAVKFLQNSRVRQSPLATRRAFLKKKGLTDEEIDMAFQQSGTAADEPSSLGPAT
B4: PIP5K1C peptide 642-657 (Phosphatidylinositol 4-phosphate 5-kinase type-1 gamma), 16-mer library wild type / TLN1 PTB (TLN1 Phosphotyrosine-binding (PTB) domain, residues 309-401) (parent)
chain 1: TDERSWVYSPLHYSAQ
chain 2: GVSFFLVKEKMKGKNKLVPRLLGITKECVMRVDEKTKEVIQEWNLTNIKRWAASPKSFTLDFGDYQDGYYSVQTTEGEQIAQLIAGYIDIILK

Variants of: B1
Assay: proteomic peptide phage display deep mutational scan (ProP-PD DMS): M13 P8 16-mer library selected against immobilised GST-tagged bait for four days (rounds), NGS of the eluted pools per day and pseudo-replica
Conditions: with SIN3A PAH2 (SIN3A PAH domain, residues 295-383); bait immobilised on MaxiSorp plates (10 µg), library pre-cleared on GST, 2 h binding at 4 °C, five washes; one round per day, days 1-4; value from days 2 and 3; keep out of graded; scale: average fractional NGS count over selection days 2 and 3

Variant | screen value
chain 1 R6F | 4.27e-05
chain 1 R6M | 6.6e-05
chain 1 R6T | 0
chain 1 R6D | 5.76e-05
chain 1 A10M | 1.91e-05
chain 1 A10Q | 0
chain 1 A10I | 4.73e-05
chain 1 A10H | 2.36e-05
chain 1 A10R | 0
chain 1 Q5D | 0
chain 1 Q5P | 3.48e-05
chain 1 Q5W | 6.78e-05
chain 1 M1H | 8.47e-05
chain 1 M1A | 6.67e-05
chain 1 M1L | 3.46e-05
chain 1 M1T | 0
chain 1 F13I | 1.91e-05
chain 1 F13P | 4.79e-05
chain 1 N3A | 0
chain 1 N3Q | 5.31e-05
chain 1 N3R | 4.48e-05
chain 1 A11D | 0.000105
chain 1 A11V | 2.84e-05

Variant | screen value
chain 1 A11S | 8.92e-05
chain 1 A11T | 9.14e-05
chain 1 L14Q | 7.31e-05
chain 1 L14F | 3.78e-05
chain 1 L14T | 5.17e-05
chain 1 L14A | 0
chain 1 L8A | 2.84e-05
chain 1 L8F | 7.63e-05
chain 1 L8R | 4.34e-05
chain 1 L8N | 7.15e-05
chain 1 L8W | 6.64e-05
chain 1 I2K | 0
chain 1 I2G | 6.22e-05
chain 1 L7V | 6.69e-05
chain 1 L7R | 0
chain 1 L7M | 0
chain 1 V4S | 0
chain 1 V4P | 1.91e-05
chain 1 V4R | 0
chain 1 V4E | 0
chain 1 V4M | 7.16e-05
chain 1 V4G | 6.66e-05

Variants of: B2
Assay: as above
Conditions: with PABPC1 PABC (PABPC1 PABC domain, residues 544-623); bait immobilised on MaxiSorp plates (10 µg), library pre-cleared on GST, 2 h binding at 4 °C, five washes; one round per day, days 1-4; value from days 2 and 3; scale: average fractional NGS count over selection days 2 and 3

Variant | screen value
chain 1 T3S | 0
chain 1 T3Q | 0
chain 1 T3G | 0.000528
chain 1 T3Y | 3.57e-05
chain 1 T3I | 0.00112
chain 1 T3F | 0.000481
chain 1 T3H | 8.48e-05
chain 1 T3K | 0
chain 1 T3W | 0.000105
chain 1 T3M | 0.000543
chain 1 T3E | 0.00159
chain 1 T3V | 0.00143
chain 1 S15P | 0.000243
chain 1 S15H | 0.000677
chain 1 S15Q | 0
chain 1 S15L | 0.00242

Variant | screen value
chain 1 S15I | 0.000221
chain 1 S15A | 0.000153
chain 1 S15D | 0
chain 1 S15G | 0
chain 1 S15W | 5.73e-05
chain 1 S15V | 0.000546
chain 1 S15Y | 0.000151
chain 1 S15N | 0.000583
chain 1 S15T | 4.17e-05
chain 1 S15F | 0.000136
chain 1 S15E | 0.000122
chain 1 S2T | 0.00018
chain 1 S2P | 0.00164
chain 1 S2Y | 0.00178
chain 1 S2V | 0.000881
chain 1 S2N | 0

Variants of: B3
Assay: as above
Conditions: with PEX14 Pex14 (PEX14 PEX14, residues 16-84); bait immobilised on MaxiSorp plates (10 µg), library pre-cleared on GST, 2 h binding at 4 °C, five washes; one round per day, days 1-4; value from days 2 and 3; scale: average fractional NGS count over selection days 2 and 3

Variant | screen value
chain 1 A15S | 0
chain 1 A15E | 0.000302
chain 1 A15Y | 9.07e-05
chain 1 A15T | 0.000397
chain 1 A15N | 0.000268
chain 1 A15G | 9.87e-05
chain 1 A15Q | 0
chain 1 N8K | 7.71e-05
chain 1 N8Y | 0.000147
chain 1 N8T | 0.000134
chain 1 N8R | 0
chain 1 Q11I | 0.000186
chain 1 Q11K | 0
chain 1 Q11G | 0.000317
chain 1 Q11P | 0
chain 1 Q11T | 0.000165
chain 1 E12D | 0.000116
chain 1 E12N | 0
chain 1 E12Q | 0.000147
chain 1 E12A | 0.000448
chain 1 E12K | 0.000191

Variant | screen value
chain 1 E12R | 9.56e-05
chain 1 A10S | 0.000299
chain 1 A10P | 0.000417
chain 1 A10Q | 0
chain 1 A10D | 0
chain 1 A10M | 0
chain 1 A10N | 0.000118
chain 1 W9T | 0
chain 1 W9Q | 0
chain 1 W9Y | 0
chain 1 W9L | 0
chain 1 W9M | 5.43e-05
chain 1 W9P | 0
chain 1 W9G | 0
chain 1 L3S | 0.000293
chain 1 L3E | 0.000345
chain 1 L3R | 0
chain 1 L3V | 0.000442
chain 1 L5F | 0.000301
chain 1 L5E | 0
chain 1 L5N | 9.07e-05

Variant | screen value
chain 1 L5D | 0
chain 1 L5R | 0.000218
chain 1 L5I | 9.07e-05
chain 1 L14G | 0
chain 1 L14A | 0.000388
chain 1 L14H | 0.000116
chain 1 L14W | 0.000163
chain 1 L14M | 9.56e-05
chain 1 S6A | 0.000293
chain 1 S6Y | 0.000301
chain 1 S6M | 0.000156
chain 1 S6T | 0
chain 1 S6W | 0
chain 1 S6I | 0.000313
chain 1 A4Y | 0.000159
chain 1 A4M | 0.000358
chain 1 A4S | 9.07e-05
chain 1 A4E | 0.000166
chain 1 A4D | 0.000198
chain 1 A4G | 0
chain 1 A1V | 0.000338

Variant | screen value
chain 1 A1L | 0.000249
chain 1 A1K | 0.00027
chain 1 A1H | 0
chain 1 A1W | 0
chain 1 A1R | 0.00015
chain 1 D2M | 0.000156
chain 1 D2V | 0.000407
chain 1 D2F | 0
chain 1 D2G | 0.000331
chain 1 D2I | 0.000253
chain 1 D2S | 0
chain 1 F13L | 0.000183
chain 1 F13S | 9.56e-05
chain 1 F13K | 0
chain 1 F13T | 0.0002
chain 1 F13G | 0
chain 1 F13P | 0
chain 1 E7Q | 0.000175

Variants of: B4
Assay: as above
Conditions: with TLN1 PTB (TLN1 Phosphotyrosine-binding (PTB) domain, residues 309-401); bait immobilised on MaxiSorp plates (10 µg), library pre-cleared on GST, 2 h binding at 4 °C, five washes; one round per day, days 1-4; value from days 2 and 3; keep out of graded; scale: average fractional NGS count over selection days 2 and 3

Variant | screen value
chain 1 D2K | 0.000108
chain 1 A15Y | 9.95e-05
chain 1 A15K | 0
chain 1 P10W | 8.28e-05
chain 1 L11D | 0
chain 1 L11K | 8.99e-05
chain 1 L11N | 8.93e-05
chain 1 L11S | 3.05e-05
chain 1 L11Q | 2.8e-05
